These results are taken from patent US20150175711A1 (SINOMAB BIOSCIENCE, published 2015).

Assay [1] deals with anti-idiotype mIgG Fab-glycophorin A fusion protein on transfected SP2/0 cells. As to the kind of experiment: cell-based ELISA, SM03 on transfected SP2/0 GlycoA clone 8 (surface expression graded -), anti-human Fc-HRP. On the technique in general: In an ELISA, binding on a coated surface is turned into a signal by an enzyme label.
The target of assay [2] is anti-idiotype mIgG Fab-GPI-DAF fusion protein on transfected SP2/0 cells. As to the kind of experiment: cell-based ELISA, SM03 on transfected SP2/0 GPI clone 10 (surface expression graded -), anti-human Fc-HRP.
The target is the same in assay [3]. The assay can be described thus: cell-based ELISA, SM03 on transfected SP2/0 GPI clone 1 (surface expression graded -), anti-human Fc-HRP.
Assay [4] shares this target. The assay can be described thus: cell-based ELISA, SM03 on transfected SP2/0 GPI clone 9 (surface expression graded -), anti-human Fc-HRP.
Assay [5] deals with anti-idiotype IgD-TM on transfected SP2/0 cells. The assay can be described thus: cell-based ELISA, SM03 10 ug/ml on transfected SP2/0 Clone AB4 (surface expression graded -), anti-human Fc-HRP.
In assay [6] the target is anti-idiotype mIgG Fab-glycophorin A fusion protein on transfected SP2/0 cells. The assay can be described thus: cell-based ELISA, SM03 on transfected SP2/0 GlycoA clone 5 (surface expression graded +++), anti-human Fc-HRP.
Assay [7] deals with anti-idiotype mIgG Fab-GPI-DAF fusion protein on transfected SP2/0 cells. The assay can be described thus: cell-based ELISA, SM03 on transfected SP2/0 GPI clone 4 (surface expression graded +++), anti-human Fc-HRP.
The target of assay [8] is anti-idiotype mIgG Fab-glycophorin A fusion protein on transfected SP2/0 cells. The assay can be described thus: cell-based ELISA, SM03 on transfected SP2/0 GlycoA clone 1 (surface expression graded -), anti-human Fc-HRP.
In assay [9] the target is anti-idiotype mIgG Fab-GPI-DAF fusion protein on transfected SP2/0 cells. As to the kind of experiment: cell-based ELISA, SM03 on transfected SP2/0 GPI clone 7 (surface expression graded -), anti-human Fc-HRP.
Assay [10] concerns the target anti-idiotype mIgG Fab-glycophorin A fusion protein on transfected SP2/0 cells. As to the kind of experiment: cell-based ELISA, SM03 on transfected SP2/0 GlycoA clone 15 (surface expression graded +++), anti-human Fc-HRP.
Assay [11] concerns the target anti-idiotype mIgG Fab-GPI-DAF fusion protein on transfected SP2/0 cells. As to the kind of experiment: cell-based ELISA, SM03 on transfected SP2/0 GPI clone 3 (surface expression graded +++), anti-human Fc-HRP.
Assay [12] concerns the target anti-idiotype IgD-TM on transfected SP2/0 cells. As to the kind of experiment: cell-based ELISA, SM03 10 ug/ml on transfected SP2/0 Clone BB5 (surface expression graded -), anti-human Fc-HRP.
For assay [13], the target named is anti-idiotype mIgG Fab-glycophorin A fusion protein on transfected SP2/0 cells. As to the kind of experiment: cell-based ELISA, SM03 on transfected SP2/0 GlycoA clone 3 (surface expression graded -), anti-human Fc-HRP.
Assay [14] has as its target anti-idiotype IgD-TM on transfected SP2/0 cells. As to the kind of experiment: cell-based ELISA, SM03 10 ug/ml on transfected SP2/0 Clone BB4 (surface expression graded -), anti-human Fc-HRP.
For assay [15], the target named is anti-idiotype mIgG Fab-GPI-DAF fusion protein on transfected SP2/0 cells. As to the kind of experiment: cell-based ELISA, SM03 on transfected SP2/0 GPI clone 8 (surface expression graded -), anti-human Fc-HRP.
Assay [16] addresses anti-idiotype IgD-TM on transfected SP2/0 cells. As to the kind of experiment: cell-based ELISA, SM03 10 ug/ml on transfected SP2/0 Clone BF9 (surface expression graded -), anti-human Fc-HRP.
Assay [17] deals with anti-idiotype mIgG Fab-GPI-DAF fusion protein on transfected SP2/0 cells. The assay can be described thus: cell-based ELISA, SM03 on transfected SP2/0 GPI clone 5 (surface expression graded +), anti-human Fc-HRP.
The target in assay [18] is anti-idiotype mIgG Fab-glycophorin A fusion protein on transfected SP2/0 cells. The assay can be described thus: cell-based ELISA, SM03 on transfected SP2/0 GlycoA clone 9 (surface expression graded -), anti-human Fc-HRP.
Assay [19] concerns the target anti-idiotype mIgG Fab-GPI-DAF fusion protein on transfected SP2/0 cells. The assay can be described thus: cell-based ELISA, SM03 on transfected SP2/0 GPI clone 6 (surface expression graded -), anti-human Fc-HRP.
Assay [20] concerns the target anti-idiotype mIgG Fab-glycophorin A fusion protein on transfected SP2/0 cells. As to the kind of experiment: cell-based ELISA, SM03 on transfected SP2/0 GlycoA clone 14 (surface expression graded -), anti-human Fc-HRP.
For assay [21] the target is unchanged. As to the kind of experiment: cell-based ELISA, SM03 on transfected SP2/0 GlycoA clone 10 (surface expression graded -), anti-human Fc-HRP.
Assay [22] has as its target anti-idiotype IgD-TM on transfected SP2/0 cells. As to the kind of experiment: cell-based ELISA, SM03 10 ug/ml on transfected SP2/0 Clone AF9 (surface expression graded -), anti-human Fc-HRP.
Assay [23] has the same target. The assay can be described thus: cell-based ELISA, SM03 10 ug/ml on transfected SP2/0 Clone AG5 (surface expression graded +++), anti-human Fc-HRP.
The target in assay [24] is T1, BSA (UniProt P02769 25-607).
T1 construct: also called control protein (BSA)
As to the kind of experiment: phage ELISA, 1 ug BSA coated per well, anti-M13-HRP detection. The method, then: Phages that survived panning were rescued. The binding specificities of selected phages were evaluated by Phage-ELISA using the target anti-CD22 antibodies RFB4, SM03, and framework-patched (humanized) SM06 and other control antibodies as antigens. […] After washing five times with borate washing buffer, pH8.0, horse radish peroxidase (HRP)-conjugated anti-M13 mouse antibody (Amersham) at a dilution fold of 3,000 was added.

Sequence of anti-idiotype mIgG Fab-GPI-DAF fusion protein on transfected SP2/0 cells (heavy, as listed by the source): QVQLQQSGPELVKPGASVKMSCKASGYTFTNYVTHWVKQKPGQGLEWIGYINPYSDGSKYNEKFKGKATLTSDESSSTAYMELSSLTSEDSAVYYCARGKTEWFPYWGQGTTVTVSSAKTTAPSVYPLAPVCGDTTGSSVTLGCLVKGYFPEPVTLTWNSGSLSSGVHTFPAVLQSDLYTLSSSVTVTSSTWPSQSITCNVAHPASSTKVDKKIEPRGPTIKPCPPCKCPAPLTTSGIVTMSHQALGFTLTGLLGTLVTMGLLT
Sequence of anti-idiotype mIgG Fab-glycophorin A fusion protein on transfected SP2/0 cells (heavy, as listed by the source limits assumed, chain 1 of 2): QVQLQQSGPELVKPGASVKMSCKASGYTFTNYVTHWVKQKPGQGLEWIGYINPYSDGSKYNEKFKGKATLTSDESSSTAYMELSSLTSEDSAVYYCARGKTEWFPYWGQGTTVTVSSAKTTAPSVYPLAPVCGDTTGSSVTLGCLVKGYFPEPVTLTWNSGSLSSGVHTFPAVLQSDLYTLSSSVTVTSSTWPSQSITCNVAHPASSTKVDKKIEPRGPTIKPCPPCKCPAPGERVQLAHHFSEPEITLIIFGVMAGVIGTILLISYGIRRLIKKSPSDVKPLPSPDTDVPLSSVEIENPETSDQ
Sequence of anti-idiotype mIgG Fab-glycophorin A fusion protein on transfected SP2/0 cells (light, as listed by the source limits assumed, chain 2 of 2): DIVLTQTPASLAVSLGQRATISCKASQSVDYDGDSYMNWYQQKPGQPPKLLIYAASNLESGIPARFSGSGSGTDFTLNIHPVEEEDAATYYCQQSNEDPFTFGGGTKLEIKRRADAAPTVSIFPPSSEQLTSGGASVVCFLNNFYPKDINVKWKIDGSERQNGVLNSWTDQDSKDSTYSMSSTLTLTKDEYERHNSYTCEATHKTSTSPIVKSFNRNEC
Sequence of anti-idiotype IgD-TM on transfected SP2/0 cells (heavy, as listed by the source limits assumed, chain 1 of 2): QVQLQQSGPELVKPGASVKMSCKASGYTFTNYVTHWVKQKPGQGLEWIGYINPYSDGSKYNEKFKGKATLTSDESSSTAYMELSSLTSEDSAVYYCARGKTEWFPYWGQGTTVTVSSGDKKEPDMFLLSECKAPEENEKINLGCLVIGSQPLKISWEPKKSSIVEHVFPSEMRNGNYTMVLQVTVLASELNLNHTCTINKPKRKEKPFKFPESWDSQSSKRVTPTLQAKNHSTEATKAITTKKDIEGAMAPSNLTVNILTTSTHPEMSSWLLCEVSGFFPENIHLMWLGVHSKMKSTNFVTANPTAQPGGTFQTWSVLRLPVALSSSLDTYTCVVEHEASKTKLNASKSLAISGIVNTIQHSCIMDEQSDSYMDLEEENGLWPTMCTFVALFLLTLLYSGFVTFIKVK
Sequence of anti-idiotype IgD-TM on transfected SP2/0 cells (light, as listed by the source limits assumed, chain 2 of 2): as the sequence (light, as listed by the source limits assumed, chain 2 of 2) above
T1 sequence (P02769 25-607 limits assumed): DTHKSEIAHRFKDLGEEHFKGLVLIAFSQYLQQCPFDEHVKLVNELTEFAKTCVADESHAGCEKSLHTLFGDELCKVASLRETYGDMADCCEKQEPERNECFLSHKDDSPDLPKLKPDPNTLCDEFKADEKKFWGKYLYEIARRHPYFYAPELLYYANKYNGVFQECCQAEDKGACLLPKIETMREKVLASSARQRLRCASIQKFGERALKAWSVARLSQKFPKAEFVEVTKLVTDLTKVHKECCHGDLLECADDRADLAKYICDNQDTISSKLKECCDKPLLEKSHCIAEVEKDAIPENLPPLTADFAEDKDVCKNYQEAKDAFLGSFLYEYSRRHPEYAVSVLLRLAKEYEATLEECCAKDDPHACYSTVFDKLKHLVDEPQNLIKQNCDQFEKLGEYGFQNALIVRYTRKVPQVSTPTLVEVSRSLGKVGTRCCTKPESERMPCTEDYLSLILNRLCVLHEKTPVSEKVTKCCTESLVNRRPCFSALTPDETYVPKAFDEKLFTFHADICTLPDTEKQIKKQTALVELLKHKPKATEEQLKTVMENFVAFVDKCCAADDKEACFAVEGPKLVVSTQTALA

Turning to SM03 chimeric anti-CD22 antibody, the OD450 nm in assay [1] was 0.284 OD450 nm; in [2], 0.85 OD450 nm; in [3] it was 0.623 OD450 nm; in assay [4], 0.618 OD450 nm; in assay [5], 0.428 OD450 nm; in assay [6] it was 3.53 OD450 nm. In addition, the OD450 nm in [7] was found to be 3.77 OD450 nm; in assay [8] it was 0.579 OD450 nm; in assay [9], 0.7 OD450 nm; in [10] it was 3.38 OD450 nm; in assay [11], 3.64 OD450 nm; in [12], 0.572 OD450 nm. The OD450 nm amounted to 0.406 OD450 nm in [13]; 0.501 OD450 nm in assay [14]; 0.618 OD450 nm in assay [15]; 0.459 OD450 nm in assay [16]; 0.977 OD450 nm in assay [17]; 0.716 OD450 nm in assay [18]. For the same molecule, the OD450 nm in [19] worked out at 0.736 OD450 nm; in assay [20], 0.437 OD450 nm; in [21] it was 0.498 OD450 nm; in assay [22] it was 0.329 OD450 nm; in assay [23], 3.08 OD450 nm.

B1: scFv Phage #3 (scFv)
scFv: QVQLVQSGPELVKPGASVKMSCKASGYTFTNYVTHWVKQKPGQGLEWIGYINPYSDGSKYNEKFKGKATLTSDESSSTAYMEVSSLTSEDSAVYYCARGKTEWFPYWGQGTPLTVSGGGGSGSGSSGGGGDIVLTQTPASLAVSLGQRATISCKASQSVDYDGDSYMNWYQQKPGQPPKLLIYAASNLESGIPARFSGSGSGTDFTLNIHPVEEEDAATYYCQQSNEDPFTFGGGTKLEI
notes: the phage coat protein fusion is not described; also called scFv isolated from phage #3
On to B1, for which the binding result in assay [24] was “no binding”.
